Experimental data reported in patent publication US20190144550A1 (Pfizer, published 2019).

Tests used:
[1] = target: T1, 8-histidine tagged recombinant wild-type protein EGFRwt (UniProt P00533 25-645, limits assumed); assay: SPR, captured by anti-human Fc, 25 C
T1 construct: not shown: 8-histidine tag

[2] = target: T2, Monomeric 8-histidine tagged human EGFRvIII extracellular domain (human, UniProt P00533 298-645); assay: SPR, scFv-Fc captured by anti-human Fc, 37 C
T2 construct: Analyte in all SPR assays; not shown: 8-histidine tag
Protocol: The scFv fragment was then fused to human IgG1 Fc moiety to facilitate recombinant expression and purification. Affinities of the scFv-Fc fusion proteins were measured at 37° C. on a surface plasmon resonance Biacore™ T200 biosensor equipped with an anti-human Fc coupled CM4 sensor chip (GE Healthcare Inc., Piscataway, N.J.) as described above. scFv-Fc proteins were captured by anti-human Fc. Monomeric 8-histidine tagged human EGFRvIII extracellular domain was then injected as the analyte at 10-fold dilution series starting at 1000 nM.

| Binder | binding result [1] | Kd [2] | koff [2] | kon [2] |
| --- | --- | --- | --- | --- |
| h62G7-L6/EQ scFv-Fc protein (Fc fusion, not shown: human IgG1 Fc moiety) DVVMTQSPLSLPVTLGQPASISCKSSQSLLYSNGKTYLNWFQQRPGQSPRRLIYQVSKLDSGVPDRFSGSGSGTDFTLKISRVEAEDVGVYYCGQDTHFPLTFGGGTKVEIKGGGGSGGGGSGGGGSGGGGSQVQLVQSGAEVKKPGASVKVSCKASGYTFTDYTLHWVRQAPGQGLEWMGGIWPITGGTTYNQKFKGRVTMTRDTSTSTVYMELSSLRSEDTAVYYCARGEAQGSWGQGTLVTVSS | no binding (tested: 1000 nM) | 101 nM | 0.076 s⁻¹ | 750000 M⁻¹ s⁻¹ |
| C6.HL scFv-Fc protein (Fc fusion, HL: heavy-chain variable domain at the N-terminus; not shown: human IgG1 Fc moiety) QVQLVQSGAEVKKPGSSVKVSCKASGDTFSSNAISWVRQAPGQGLEWMGVIIPIFGTADYAQKFQGRVTITADESTSTAYMELSSLRSEDTAVYYCARHTYHEYAGGYYGGAMDPWGQGTLVTVSSGGGGSGGGGSGGGGSGGGGSELQSVLTQPPSASGTPGQRVTISCSGSSSNIGSNYVYWYQQLPGTAPKILIYRNNQRPSGVPDRFSGSKSGTSASLAISGLRSEDEADYYCAAWDDNLSGWVFGTGTKLTVL | no binding (tested: 1000 nM) | 1060 nM | 0.02 s⁻¹ | 19000 M⁻¹ s⁻¹ |
| 14C11.HL scFv-Fc protein (Fc fusion, HL: heavy-chain variable domain at the N-terminus; not shown: human IgG1 Fc moiety) QVTLKESGPVLVKPTETLTLTCTVSGFSLNNARMGVSWIRQPPGKALEWFAHIFSTDEKSFRTSLRSRLTLSKDTSKSQVVLTMTNMDPVDTATYYCARDSSNYEGYFDYWGQGILVTVSSGGGGSGGGGSGGGGSGGGGSEIVMTQSPATLSVSPGERATLSCRASQSVSNNLAWYQQKPGQAPRLLIYGASTRATGVPARFSGSDSGTEFSLTISSLQSEDFAVYFCQQYKDWPFTFGPGTKVEIK | no binding (tested: 1000 nM) | 104 nM | 0.0043 s⁻¹ | 42000 M⁻¹ s⁻¹ |
| 14C11.LH scFv-Fc protein (Fc fusion, LH: light-chain variable domain at the N-terminus; not shown: human IgG1 Fc moiety) EIVMTQSPATLSVSPGERATLSCRASQSVSNNLAWYQQKPGQAPRLLIYGASTRATGVPARFSGSDSGTEFSLTISSLQSEDFAVYFCQQYKDWPFTFGPGTKVEIKGGGGSGGGGSGGGGSGGGGSQVTLKESGPVLVKPTETLTLTCTVSGFSLNNARMGVSWIRQPPGKALEWFAHIFSTDEKSFRTSLRSRLTLSKDTSKSQVVLTMTNMDPVDTATYYCARDSSNYEGYFDYWGQGILVTVSS | no binding (tested: 1000 nM) | 136 nM | 0.0065 s⁻¹ | 48000 M⁻¹ s⁻¹ |
| 20B9.HL scFv-Fc protein (Fc fusion, HL: heavy-chain variable domain at the N-terminus; not shown: human IgG1 Fc moiety) QVTLKESGPVLVKPTETLTLTCTVSGFSLSNARMGVSWIRQPPGKALEWLGHIFSTDEKSYSTSLRGRITISKDTSRGLVVLTLTNMDPVDTATYYCARDSSNYEGYFDFWGPGFLVTVSSGGGGSGGGGSGGGGSGGGGSEIVMTQSPATLSVSPGERATLSCRVSQSIGANLAWYQQKFGQAPRLLIYGASTRATGIPVRFSGGGSGTEFTLTISSLQSEDFAIYSCQQYIYWPFTFGPGTTVDIK | no binding (tested: 1000 nM) | 73.8 nM | 0.0018 s⁻¹ | 24000 M⁻¹ s⁻¹ |
| 20B9.LH scFv-Fc protein (Fc fusion, LH: light-chain variable domain at the N-terminus; not shown: human IgG1 Fc moiety) EIVMTQSPATLSVSPGERATLSCRVSQSIGANLAWYQQKFGQAPRLLIYGASTRATGIPVRFSGGGSGTEFTLTISSLQSEDFAIYSCQQYIYWPFTFGPGTTVDIKGGGGSGGGGSGGGGSGGGGSQVTLKESGPVLVKPTETLTLTCTVSGFSLSNARMGVSWIRQPPGKALEWLGHIFSTDEKSYSTSLRGRITISKDTSRGLVVLTLTNMDPVDTATYYCARDSSNYEGYFDFWGPGFLVTVSS | no binding (tested: 1000 nM) | 82.7 nM | 0.0025 s⁻¹ | 30000 M⁻¹ s⁻¹ |
| 32A10.HL scFv-Fc protein (Fc fusion, HL: heavy-chain variable domain at the N-terminus; not shown: human IgG1 Fc moiety) QVTLKESGPVLVKPTETLTLTCTVSGFSLSNARMGVSWIRQPPGKALEWLAHIFSTDEKSIRRSLRSRLTLSKDTSKSQVVLTMTNMDPVDTATYFCARDSSNYEGYFDYWGQGTLVTVSSGGGGSGGGGSGGGGSGGGGSEVVMTQSPATLSVSPGERVTLSCRASQSVSSNFAWYQQRPGQAPRLLLYGATTRATGLPGRFSGSGSGTENILTISSLQSEDFAIYFCQQYKDWPFTFGPGSKVDIK | no binding (tested: 1000 nM) | 24.5 nM | 0.0012 s⁻¹ | 47000 M⁻¹ s⁻¹ |
| 32A10.LH scFv-Fc protein (Fc fusion, LH: light-chain variable domain at the N-terminus; not shown: human IgG1 Fc moiety) EVVMTQSPATLSVSPGERVTLSCRASQSVSSNFAWYQQRPGQAPRLLLYGATTRATGLPGRFSGSGSGTENILTISSLQSEDFAIYFCQQYKDWPFTFGPGSKVDIKGGGGSGGGGSGGGGSGGGGSQVTLKESGPVLVKPTETLTLTCTVSGFSLSNARMGVSWIRQPPGKALEWLAHIFSTDEKSIRRSLRSRLTLSKDTSKSQVVLTMTNMDPVDTATYFCARDSSNYEGYFDYWGQGTLVTVSS | no binding (tested: 1000 nM) | 29.8 nM | 0.0012 s⁻¹ | 41000 M⁻¹ s⁻¹ |
| 42G9.HL scFv-Fc protein (Fc fusion, HL: heavy-chain variable domain at the N-terminus; not shown: human IgG1 Fc moiety) QVTLKESGPVLLKPTETLTLTCTVSGFSLSNPRMGVSWIRQPPGKALEWFAHIFSTDEKSLKLSLRSRLTLSKDTSKSQVVLTMTNMAPVDSATYYCARDSSNYEGYFDFWGQGTLVTVSSGGGGSGGGGSGGGGSGGGGSEVVLTQSPATLSVSPGERATLSCRASQSVRSNLAWYQQKSGQAPRLLIYGSTIRATGVPARFSGSGSGTEFTLTISSLQSEDFAVYYCQQYSDWPFTFGPGTKVDIK | no binding (tested: 1000 nM) | 18.8 nM | 0.0011 s⁻¹ | 56000 M⁻¹ s⁻¹ |
| 42G9.LH scFv-Fc protein (Fc fusion, LH: light-chain variable domain at the N-terminus; not shown: human IgG1 Fc moiety) EVVLTQSPATLSVSPGERATLSCRASQSVRSNLAWYQQKSGQAPRLLIYGSTIRATGVPARFSGSGSGTEFTLTISSLQSEDFAVYYCQQYSDWPFTFGPGTKVDIKGGGGSGGGGSGGGGSGGGGSQVTLKESGPVLLKPTETLTLTCTVSGFSLSNPRMGVSWIRQPPGKALEWFAHIFSTDEKSLKLSLRSRLTLSKDTSKSQVVLTMTNMAPVDSATYYCARDSSNYEGYFDFWGQGTLVTVSS | no binding (tested: 1000 nM) | 22.1 nM | 0.00088 s⁻¹ | 40000 M⁻¹ s⁻¹ |
| 26B9.HL scFv-Fc protein (Fc fusion, HL: heavy-chain variable domain at the N-terminus; not shown: human IgG1 Fc moiety) EVQLVESWGVLVKPGGSLRLSCAASGFIFNNAWMSWVRQAPGKGLEWIGRIKSKSDGGTTDYAAPVKDRFTISRDDSKDTLYLQMNGLKTEDTAVYFCTTAPGGPFDYWGQGTLVTVSSGGGGSGGGGSGGGGSGGGGSDIVLTQSPLSLPVTPGEPASISCRSSQSLLHRDGFNYLDWFLQKPGQSPQLLIYLASSRASGVPDRFSGSDSGTDFTLKISRVEAEDVGVYYCMQALQTPITFGQGTRLEIK | no binding (tested: 1000 nM) | 705 nM | 0.04 s⁻¹ | 57000 M⁻¹ s⁻¹ |
| 26B9.LH scFv-Fc protein (Fc fusion, LH: light-chain variable domain at the N-terminus; not shown: human IgG1 Fc moiety) DIVLTQSPLSLPVTPGEPASISCRSSQSLLHRDGFNYLDWFLQKPGQSPQLLIYLASSRASGVPDRFSGSDSGTDFTLKISRVEAEDVGVYYCMQALQTPITFGQGTRLEIKGGGGSGGGGSGGGGSGGGGSEVQLVESWGVLVKPGGSLRLSCAASGFIFNNAWMSWVRQAPGKGLEWIGRIKSKSDGGTTDYAAPVKDRFTISRDDSKDTLYLQMNGLKTEDTAVYFCTTAPGGPFDYWGQGTLVTVSS | no binding (tested: 1000 nM) | 494 nM | 0.034 s⁻¹ | 69000 M⁻¹ s⁻¹ |
